Measured values as given in PMC3285296.

B1: HA-tagged hepatic glycogen binding subunit GL of PP1 (HA-GL) (natural protein)
chain: MMAVDIEYRYNCMAPSLRQERFAFKISPKPSKPLRPCIQLSSKNEASGMVAPAVQEKKVKKRVSFADNQGLALTMVKVFSEFDDPLDMPFNITELLDNIVSLTTAESESFVLDFSQPSADYLDFRNRLQADHVCLENCVLKDKAIAGTVKVQNLAFEKTVKIRMTFDTWKSYTDFPCQYVKDTYAGSDRDTFSFDISLPEKIQSYERMEFAVYYECNGQTYWDSNRGKNYRIIRAELKSTQGMTKPHSGPDLGISFDQFGSPRCSYGLFPEWPSYLGYEKLGPYY

What was measured:
Assay in all cases: co-IP
[1] = target: Flag-tagged glycogen phosphorylase (GP), wild type (human) (UniProt P06737)
[2] = target: Flag-tagged glycogen phosphorylase K470Q/K796Q (GP^K2Q) (human) (UniProt P06737)
[3] = target: Flag-tagged glycogen phosphorylase (GP), wild type (human) (UniProt P06737); remark: listed apart in the source

Molecule	increase of the co-precipitate with NAM+TSA against untreated cells [1] [%]	PP1α co-immunoprecipitated, against wild type GP [2] [fold]	increase of the co-precipitate in 25 mM glucose against glucose free medium [3] [%]
HA-tagged protein phosphatase 1 alpha (HA-PP1α) (from UniProt P62136 1-330) (enzyme)	> 100	2	
B1			100
